One experiment deals with T1, Stau dsRBD5 Y971K (Drosophila, UniProt P25159 951-1018).
T1 chain: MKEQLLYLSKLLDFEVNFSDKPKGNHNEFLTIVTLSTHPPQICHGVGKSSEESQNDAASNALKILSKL
Nature of the experiment: ITC. A general note: ITC needs no label: the signal is the heat of the interaction.

For experiment [1], the target named is T2, Trx-Stau951-1,018 (Drosophila, UniProt P25159 951-1018).
T2 chain: T1 chain with K21Y
Nature of the experiment: ITC; Mira fragments injected into Stau fragments; 25 °C; 50 mM Tris pH 8.0, 100 mM NaCl, 1 mM EDTA.

Experiment [2] has as its target T2, Trx-Stau951-1,018. Kind of experiment: ITC.

Residue numbers refer to the chain shown, from its start. Numbers in names are those of the source.

B1: Trx-Mira514–595 (domain or fragment)
chain: NYQLTLTNTRATVNILMERLKKSDADVEQYRAELESVQLAKGALEQSYLVLQADAEQLRQQLTESQDALNALRSSSQTLQSE
For B1, the Kd – broadly, the equilibrium constant for the complex coming apart – with Stau dsRBD5 Y971K is 8.7 µM; with Trx-Stau951-1,018 [1], 1.07 µM.

B2: Mira514–595 R532A (domain or fragment)
chain: B1 chain with R19A
In the case of B2, the dissociation constant (Kd) with Trx-Stau951-1,018 [2] is 72.5 µM.

The values are drawn from publication PMC4600727 (2015).
